Consider two proteins from publication PMC3229823 (Virology, 2011).

Where two headings read alike, the source gives them in different places.

Data set [1] deals with the molecule itself. As to the kind of experiment: SDS-resistant complexes on SDS-polyacrylamide gel, coomassie staining.
Data set [2] deals with the molecule itself.

B1: MBP-Agno (17-71) (domain or fragment)
chain: TWSGTKKRAQRILIFLLEFLLDFCTGEDSVDGKKRQRHSGLTEQTYSALPEPKAT
Consider B1, for which the binding result in data set [1] is “binds”.

B2: MBP-SV40 Agno (full length SV40 agnoprotein fused to MBP) (natural protein)
chain: MVLRRLSRQASVKVRRSWTESKKTAQRLFVFVLELLLQFCEGEDTVDGKRKKPERLTEKPES
Consider B2, for which, in data set [2], the binding result is “binds”.
